From the RNAGym collection of RNA variant scans (doi:10.7554/elife.80360)

B1: HDV Ribozyme (parent)
chain: GGCCGGCAUGGUCCCAGCCUCCUCGCUGGCGCCGGCUGGGCAACAUUCCGAGGGGACCGUCCCCUCGGUAAUGGCGAAUGGGACCCA

Variants of: B1
Test: self-cleavage, relative activity (ratio to wild type); higher = more cleavage; co-transcriptional

Variant | self-cleavage
C15A U72A | 0.107
U46G A51C | 0.755
C63A A71U | 1.11
C18A G80U | 0.051
A70G G76C | 0.956
G2C G17C | 0.0536
G5A A87U | 0.218
C63A A77C | 0.268
C3G A42G | 0.138
C62U C64G | 0.482
C4G G74C | 0.0386
G6C G11U | 0
C18U C62G | 0.543
G74C U79G | 0.302
G5A U12G | 0.145
C57A U72G | 0.635
U12A G73C | 0.314
G50U U72G | 0.415
G29U C66G | 0.0652
G11C G34U | 0.0302
U69C G80U | 0.0898
G1A A43C | 0.0415
C48G U60C | 0.969
C26A A83U | 0.796

Variant | self-cleavage
G34U C61U | 0.208
A51C U60G | 0.95
U46C A87U | 0.689
U20G G25C | 0
G17C U23G | 0.123
C3U C22G | 0.0193
U23C C61G | 0.945
G54U G73C | 0.297
A45U G59C | 0.969
C14G U20C | 0.0554
A45U C86G | 0.795
A8G C24G | 0.0639
G5C C58G | 0.378
C3U G59C | 0.688
C58A A78C | 0.108
C84U C85A | 0.877
C19A A70C | 0.0573
U9A A78G | 1.04
C57G U79G | 0.506
C41A A78G | 0.534
G2A C62A | 0.137
C66G G76C | 0.73
G35U A51U | 0.471
A51G C64A | 0.47

Variant | self-cleavage
G5U G25A | 0.0346
G17C | 0.338
G11U G76A | 0.292
C4G C86A | 0.554
A45G G74U | 0.543
C66G U69A | 0.917
U9C C14A | 0.982
C4U C57U | 0.656
G17A C36U | 0.272
C14U C21A | 0
G29U A70U | 0.0923
C30G C62U | 0.185
C19A U60A | 0.141
U60A G68A | 0.917
G29U C63G | 0.0386
U9C G17C | 0.415
U37G A70U | 0.229
G10U G59C | 0.857
C24U U47A | 0.658
U65A C84A | 0.769
C24A C57A | 0.842
C26G G53A | 1.02
G17A A42C | 0.229
C26U G35U | 0.641

Variant | self-cleavage
U12G G39A | 0.403
G11A C24A | 0.126
A43C C66A | 0.302
G2U G34U | 0.0369
G6C G39A | 0.0405
C13A G67C | 0.259
C24G G55U | 0.16
C58G G68A | 1.03
G6A C30U | 0.432
G28C U37G | 0
G68C C75G | 0.128
G76A A78C | 0.242
C85A C86G | 0.791
C44U C57U | 0.704
A51U G73C | 0.415
U46A U72C | 0.655
U69G C84A | 0.779
G29A G35C | 0.149
G76U C85U | 1.24
G28U G50C | 0.212
G68A G76A | 1
G17A G59U | 0.852
G54C A70U | 0.81
G10U G59U | 0.905

Variant | self-cleavage
C64G C86U | 0.845
G6A C62G | 0.441
G28C G39A | 0.0744
G2C C44A | 0.0449
C14G A77G | 0.415
G6C C15U | 0.138
C24A G40A | 0.809
C36A C61A | 0.0536
G29U C36A | 0.187
C4G C66A | 0.369
G35A G53C | 0.65
G54A U69G | 0.882
G74U U79C | 0.0963
C49G U69C | 0.898
C14A A56G | 0.57
C21A U46C | 0.0536
G35A A87G | 0.473
C15A C41G | 0.285
C3A C21A | 0.0339
G5U G67C | 0.582
C15U U27G | 0.511
C49U A51U | 0.867
U46A A56G | 0.831
U9A G17U | 0.383

Variant | self-cleavage
G1U G50A | 0.475
U9C C75A | 0.115
C33U G34A | 0.293
C7G | 0.315
U20C A51C | 0.287
G2A C14G | 0.0773
C18G C61G | 0.219
A8G G40C | 0.369
G68A C85A | 0.831
G54A C75U | 0.164
G1C G52U | 0.219
C33A C49A | 0.364
C14U G55U | 1.24
G59U U69A | 0.85
U72C G82A | 0.248
G50A U60G | 0.514
C24G A77C | 0.0386
G54A G55U | 0.993
G73A G76U | 0.906
U65A G67U | 0.767
C18G G80U | 0.0621
G59C A78C | 0.179
G40U C41U | 0.937
G53U G82U | 0.427

Variant | self-cleavage
C58U A78C | 0.305
C4G G68A | 0.309
A71U G76A | 0.932
C49G G68U | 0.808
G2A C18U | 0.0239
C3G A16C | 0.208
U23C G54A | 0.888
G17A G38C | 0.0791
C64A C84G | 0.536
G35C C49U | 0.203
G82C C85U | 0.18
U37C C61U | 0.884
C18G U23C | 0.227
C30U G76U | 0.805
C36A U37G | 0.256
C24A C75A | 0.219
U27A A77U | 0.332
U69A G76U | 0.95
C19G G80C | 0.0773
G11U C15G | 0.166
C36U G54U | 0.796
G38C C48A | 0.104
G17U C19A | 0.166
U9A G74U | 0.585

Variant | self-cleavage
A42G U79A | 0.573
C33A U72A | 0.208
A8U G52A | 0.692
C57A C64G | 0.658
C48G G54C | 0.665
A42G C85U | 0.767
G6A A71G | 0.762
G31C G80A | 0.128
G34U C64G | 0.277
C21U C84U | 0.0923
C36U C75G | 0.0959
C4U G31C | 0.0339
C36U A45C | 0.0426
G34A G67A | 0.104
C49A C75U | 0.175
C13U G31C | 0.198
C14G G52U | 0.391
U60C C62U | 0.997
C15A U23C | 0.748
C24A C48U | 0.799
U20A C86U | 0.119
G76C A83C | 0.201
U9A G25A | 0.426
G35C U69G | 0.277

Variant | self-cleavage
G1C U27G | 0.277
U69G G82A | 0.453
C3A U12C | 0.0615
G55A C84G | 0.635
A71G G80U | 0.196
C33A G53A | 0.264
C41A A43C | 0.872
G10U A43C | 0.115
G25A C85G | 0.237
G52C G82U | 0.283
G38C C44G | 0.222
G50U C58A | 0.997
G11U C24A | 0.112
C7A G28U | 0.0361
C4G U79G | 0
C14A C57U | 1.23
G5A C57G | 0.138
U47G A56G | 1.08
C3G U46C | 0.373
C30U U37G | 0
C14A C33A | 0.0959
U12A G80C | 0.0852
U23C C85A | 1.01
G31U G34U | 0.0791

Variant | self-cleavage
C44G G74U | 0.318
G11A C41U | 0.396
U20G C84A | 0.222
G17U U20G | 0
C21G A83U | 0.0875
G34U G74C | 0.138
C36U C85A | 0.732
C7A C57U | 0.702
G28A C49U | 0.0683
G54U A71G | 0.897
G10U C26U | 1.13
U23G C57U | 0.785
G5U G39U | 0.136
G1A A77G | 0.237
U47C G73C | 0.374
C3A U60C | 0.499
C4G C18U | 0.0282
C3U C26G | 0.989
C22U C30G | 0.126
C66G G74A | 0.471
G5C C21U | 0.0554
C3U G38A | 0.0811
U47C U72C | 0.712
G40A C48A | 0.941

Variant | self-cleavage
U20A G59A | 0.0302
G17C U72A | 0
G38U C75G | 0.0707
G2C A42U | 0.0475
U27C G53U | 0.746
C48G G76C | 0.867
C36U C66A | 0.712
U72C C85A | 0.633
A16U G50U | 0.889
A45G G73U | 0.415
C22G G39C | 0.0554
G1A G52A | 0.138
U47G A77U | 0.665
G39U U79G | 0.277
C62G U72C | 0.525
G35C G73U | 0.181
G28A G82U | 0.138
G1C C22A | 0.203
G10U A51C | 1.09
G54U G81A | 0.306
G17A G29A | 0.128
C13A C36U | 0.0432
G1C G54U | 0.396
G31C G53U | 0.496

Variant | self-cleavage
C14U U47G | 0.939
A16C C36U | 0.578
G1U G74U | 0.358
G5A U27C | 0.0594
A77C G80U | 0.219
G25C U69G | 0
C13A C33A | 0.0396
U47A G59A | 0.746
C36U C62U | 0.911
C14U C62G | 0.751
C13A U60G | 0.136
A43G C49G | 0.344
C66G G73U | 0.389
C13G G81C | 0.229
G25U C57U | 0.227
G6C C33A | 0.172
G10U G52U | 0.891
G38A | 0.157
G73C G74C | 0.133
G68C A71U | 0.68
U20G U79G | 0.208
U65G G73U | 0.47
C13U G38A | 0.138
U60C U72G | 0.767

Variant | self-cleavage
C58G C75A | 0.196
C24G G28U | 0.0594
U9G G31C | 0.378
C13A A16C | 0.748
U60G C62G | 0.703
G34U C58A | 0.111
G5A A8U | 0.151
G5U C15G | 0
C18U C22A | 0.27
C15G A56U | 0.914
C41A G67C | 0.525
C13A C26U | 0.764
U72G G73C | 0.639
A42G C49U | 0.489
A8U G53U | 0.867
C63U G81A | 0.521
G35C C84U | 0.256
U20C A42G | 0
C3G C4G | 1
C15U U72C | 0.598
C15A G74U | 0.218
G11U G29U | 0.0536
C13A U20C | 0.0405
C18A C21G | 0.131

Variant | self-cleavage
C57A C63G | 0.945
U60C C86U | 0.88
G17A A83G | 0.7
G53A C75G | 0.156
G34U U72C | 0.164
G5C G6C | 0.151
C3U C48G | 0.641
C15A A56C | 0.782
C64G A83G | 0.708
U9C A71U | 0.969
C63A U69G | 0.884
U60G G80C | 0.141
G74U A83G | 0.256
C24U C57U | 0.538
G50U C64A | 0.468
C22G C57A | 0.0652
G59U G73C | 0.614
C75U U79G | 0.0594
C4U U27C | 0.166
C15G U60A | 0.185
C61A G68A | 1.08
C14A G55C | 0.767
